B1: TPR t1 (parent)
chain: GACCAAUCUGCCCUCAGAGCUCGAGAACAUCUUCGGAUGCAGAGGAGGCAGGCUUCGGUGGCGCGAUAGCGCCAACGUCCUCAACCUCCAAUGCAUCCCACCACAUGAUGAUGCCUGAAGAGCCUUGGUUUUUUG

Variants of: B1
Experiment: polymerase ribozyme fitness, log enrichment relative to wild type (log ratio); higher = more active; in vitro selection for triplet polymerase activity
Outline: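 Fitness measures genotype enrichment against wild-type enrichment on a logarithmic scale, with inverse-variance-weighted averaging of replicates. The logarithm is base 2, and genotypes were kept only with ≥10 input reads and ≥1 read per output in Illumina sequencing. The sequenced libraries came from one triplicate in vitro selection round, including frozen incubation at −7 °C, of PCR-built, transcribed mutant libraries of each subunit of a heterodimeric triplet polymerase ribozyme.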

Row | Variant | polymerase ribozyme fitness (log ratio)
1 | C12U U78G U96A G120U U131A | -0.178
2 | C13G C15A A29G C64A C82A C104G U109G U131A | -5.2
3 | C13G A16G U21A A29C A43U G69U C82G C114U | -4.09
4 | C13G A111G C115U | -4.46
5 | C13A G71U A119G | -1.25
6 | C13A C70U C114G | -6.69
7 | C13A C40A G52A C56U | -2.98
8 | C13A U55C G69C G110U | -4.5
9 | C12U U109G | -3.6
10 | C13G G93A C101G U112C U130A | -4.16
11 | C13A G71U | -1.35
12 | C13A C86U C124G | 1.07
13 | C13G A37G C53G G110U G113A | -5
14 | C13A U78C | -1.78
15 | C13A A83G A121U C123U | 0.492
16 | C13A G52U C70U | -2.88
17 | C13A A43G | -3.45
18 | C13G G63A G71A U112C | -5
19 | C13A G17A C62A G120A | -5.55
20 | C13G C72G C102G G113A G128A | -5.75
21 | C13G A27U G47U G63A U78A | -6.63
22 | C13A G36C C53G A95C | -4.38
23 | C13G C49U C82A C124G U125A | 0.252
24 | C13A G39U G69U U109A | -5.33

Row | Variant | polymerase ribozyme fitness (log ratio)
25 | C13A G120C | -0.417
26 | C13A C72G | -1.85
27 | C13A C72A | -2.25
28 | C13A C20U C40U C72A A83C G117U C124A | -4.4
29 | C13G A95G U112C C124U | 1.05
30 | C12U U21G U38A G61C A103U U112C C115A A118G G127U | -6.24
31 | C13G G47C A95C | -4.32
32 | C13G A37U G42C C53U G77A A121G U130A | -1.06
33 | C12U U112A | 1.23
34 | C13A C85U C102U | -4.16
35 | C13G A43U G58A | -4.45
36 | C13G C40A A84U U106A | -3.53
37 | C13G G52C G71A | -3.97
38 | C13A C82U | -1.59
39 | C13A C82G | -1.93
40 | C13G A119U C123U | 1.58
41 | C13A C28U | -3.53
42 | C13G G113U | -2.94
43 | C13G C89A A90C U130C | -3.77
44 | C13G A119G | -0.865
45 | C13A A27U G47U | -3.3
46 | C13G C40U C49A | -2.42
47 | C13A C28G A46G G110C U125C | -0.574
48 | C13A A66C C123A | -2.16

Row | Variant | polymerase ribozyme fitness (log ratio)
49 | C13A G52A C53U A75U U81G G120U C124U G127U | -1.17
50 | C13A A16U | -0.236
51 | C13A C22G G69U G120U | -1.67
52 | C12U U125A U126C | -0.829
53 | C13G C82A G128C | -3.69
54 | C13G A41G G48U U78G A91C | -5.06
55 | C13G A37G G117C | -4.68
56 | C13G G47U G77U | -3.79
57 | C13A A18C C94G C114U | -5.11
58 | C13G C73A U81G A121G | -1.23
59 | C13A G44A | -2.95
60 | C13A G44C | -1.83
61 | C13G C99U | -4.01
62 | C13G C40A | -0.524
63 | C13A G36C C64U C80U U112G G117A | -6.43
64 | C13G C40A G63A | -4.13
65 | C13A U59G C89G U106C | -3.02
66 | C13G G61A C82A | -2.32
67 | C13G U21C C49U C53G G117A A119G | -5.71
68 | C13A G60U C86U | -2.73
69 | C12U U116A | -1.04
70 | C13A U112A G120C | -0.261
71 | C12U U96A | -0.734
72 | C12U U96G | -0.215

Row | Variant | polymerase ribozyme fitness (log ratio)
73 | C13A A27U C101U | -4.94
74 | C13A A18U G42U C123G | -0.827
75 | C13G G127U | -2.53
76 | C13G G127C | -1.12
77 | C13G C123G | 1.77
78 | C13G A50U U87C | -3.31
79 | C13A U14A U54A | -2.73
80 | C13A A27U | -3.33
81 | C13A A27C | -3.81
82 | C13G C115A | -1.77
83 | C13A C72U U92C U133A | -3.18
84 | C13G G57C U109A A111U | -4.71
85 | C13G U14G C15A G71A G122A | -4.63
86 | C13A A24G G58C C115A | -3.96
87 | C13G G39U G63U C115U | -5.78
88 | C13G C64U A83U A95C G110A G120U | -3.89
89 | C13A A46C C64U U112C | -1.16
90 | C13G C76U | -1.95
91 | C13A U32A C53G | -6.04
92 | C13A C79A | -3.23
93 | C13A C53U C114U G120A | -3.61
94 | C13G A43U C76U | -1.01
95 | C13G G39C G113C | -3.84
96 | C13A G48U A111C | -2.2

Row | Variant | polymerase ribozyme fitness (log ratio)
97 | C13G C53G | -1.53
98 | C13A U112C | -0.888
99 | C13A G60A U131A | -2.5
100 | C13G C53U G113A G128U | -5.15
101 | C13A A29G U55A C76G C101G C102A U112C | -8.04
102 | C13A A24U G63C A83U A84C G120U G122A U125A | -6.79
103 | C13G G19U G61U C73U G113U | -5.34
104 | C13A G69A | -3.52
105 | C13A G69C | -3.15
106 | C13A G69U | -1.23
107 | C13A C64U C115A | -2.72
108 | C13G A26G C70U C99U A119U | -4.5
109 | C13A C94U | -2.74
110 | C13A C94A | -2.07
111 | C13A C70U | -2.36
112 | C13A C70G | -3.31
113 | C13G U54C C89U A90U | -3.33
114 | C13G U33C C72U U81A C101G G110U U132A | -6.08
115 | C13G A29G G42A G117U | -6.21
116 | C13G G39A G113U C114A | -4.57
117 | C13G C64U C73A G120A A121U | -0.317
118 | C13G C53A C82A | -2.24
119 | C13G C82A A84G C123A | -0.276
120 | C13A A105U | -3.91

Row | Variant | polymerase ribozyme fitness (log ratio)
121 | C13G U59A | -1.41
122 | C13A G110A | -1.4
123 | C13A G44C C124A | 0.459
124 | C13A G61U | -1.08
125 | C13G C56U C85A | -3.69
126 | C13A U38G G58U | -2.03
127 | C13G G61A C70G C123U | -5.1
128 | C13A C82A C94U G110A | -3.09
129 | C13G G63U C72U | -2.72
130 | C13A G19A G113U | -3.81
131 | C13A C49G G122U C124G | -0.569
132 | C13A C72U U78A | -2.1
133 | C13A C56G C73U G77U | -1.96
134 | C13A A95G U109A | -6.28
135 | C13G G45C C53U G63U C88A | -3.62
136 | C13A C124A | 0.0418
137 | C13A C15A G47A C123U G127C | -3.95
138 | C13A G45C A84C A91C | -4.71
139 | C13G A90G | -1.86
140 | C13A G113U | -4.1
141 | C13A G113A | -2.48
142 | C13A U14A G44A C56U | -2.36
143 | C13G G63C U87C | -3.11
144 | C13G G47A C88U C102U U116G C123A | -4.62

Row | Variant | polymerase ribozyme fitness (log ratio)
145 | C13A U21A A29U | -4.11
146 | C13G G58C C64U U92C | -3.39
147 | C13A G17C C72U C88U A121G | -2.21
148 | C13G G36A A95C | -4.52
149 | C13G A29U C34A G61U A111U U133C | -1.41
150 | C13A C40A C79U | -2.13
151 | C13A G42U | -3.39
152 | C12U U32C C56G | -0.144
153 | C13G C114A | -2.59
154 | C13G G36U C101U U112C | -1.75
155 | C13G C70U U112G | -2.26
156 | C13G G57U | -1.94
157 | C13A C101U G113A | -2.95
158 | C13A A46C C124G | 0.675
159 | C12U U30C G61U | -3.15
160 | C13G A26G | -3.54
161 | C13G C82A | -2.47
162 | C12U U54G U55A G61A G110A A118C U129A | -6.68
163 | C12U U38C G71U C101G | -2.11
164 | C13A G57C C85A | -1.99
165 | C13G G44A | -2.85
166 | C13G A41U | -3.04
167 | C13G G117C | -4.58
